Data published in paper PMC12316982 (Nature Communications, 2025).

Target: unmodified NA of A/Vietnam/1203/2004 (VN04, H5N1) (Influenza A virus A/Vietnam/1203/2004 …, UniProt Q6DPL2, strain)
Assay: ELISA
Conditions: both partners purified

| Binder | binding result |
| --- | --- |
| NCS.1.1 (human IgG1) (antibody, V domains shown) VH: QVQLQESGPRLVKPSETLSLTCSVSGESISSGGYYWTWIRQHPGKGLEWIGNIFDTGSTDYSPSLKTRLTISIDTSKNQFYLRLNSATAADTAVYYCARVGFSLETDRPYYLGLDVWGQGTTVTVSS VL: DIVMTQSPLSLPVTPGEPASISCRSSQSLLHSNGYTYLDWYLQKPGQSPQLLISFTSNRASGVPDRFSGSGSGTYFTLKISRVEAEDVGVYYCMQAVQTPWTFGQGTKVEIK | binds |
| NCS.1.3 (human IgG1) (antibody, V domains shown) VH: QVQLQESGPRLVKPSETLSLTCSVSGESISSGGYYWTWIRQHPGKGLEWIGNIFDTGSTDYSPSLKTRLTISIDTSKNQFYLRLTSATAADTAVYYCARVGFSLETDRPYYLGLDVWGQGTTVTVSS VL: DIVMTQSPLTLPVTPGEPASISCRSSQSLLHSNGYTYLDWYLQKPGQSPQLLIYFASNRASGVPDRFSGSGSGTYFTLKISRVEAEDVGVYYCMQAVQSPWTFGQGTKVEIK | binds |
| NCS.1 (human IgG1) (antibody, V domains shown) VH: QVQLPESGPRLVKPSETLSLTCSVSGESISSGGYYWTWIRQHPGKGLEWIGNIFDTGSTHYSPSLKTRLTISIDTSKNQFYLRLNSATAADTAVYYCARVGYSLETDRPYYFGLDVWGQGTTVTVSS VL: DIVMTQSPLSLPVTPGEPASISCRSSQSLLHSNGYTYLDWYLQKPGQSPQLLIYLASNRASGVPDRFSGSGSGTYFTLKISRVEAEDVGVYYCMQAVQTPWTFGQGTKVEIK | binds |
